From patent US20240117011A1

Key:
[1] = target: full-length spike B.1.617.2 (SARS-CoV-2) (UniProt P0DTC2); assay: cell-based or functional assay
[2] = target: spike of variant P.1 v1 on pseudovirus; assay: cell-based or functional assay

Row | Substance | neutralization, fold reduction in activity [1] [fold] | pseudotyped virus neutralization [1] [ng/mL] | neutralization IC50 [2] [µg/mL]
1 | REGN10987 (antibody) | 4 |  | 
2 | LY-CoV555 (antibody) |  | > 10000 | > 10
3 | CB6 (antibody) |  |  | > 10
